Measured values taken from publication PMC8093215 (Nature Communications, 2021).
Like-named read-outs stand apart in the source and are kept apart here. Blank lines part the entries; values can stand above or below the binder they belong to. No end group written: not given here. trimethyl = trimethyl-lysine; dimethyl = dimethyl-lysine

Key:
[1] = molecular target: T1, human DNMT1 BAH1 domain (residues 728-900), D768A (human, UniProt P26358 728-900, D768A); test: ITC; 1 mM H4K20me peptide titrated over 0.1 mM hDNMT1 BAH1 or BAH2 domain; 25 mM Tris-HCl pH 7.5, 100 mM NaCl, 2 mM DTT; 5 °C; single-site binding mode; details: both partners purified
T1 construct: numbering on isoform 1 of 1616 amino acids; also called hDNMT1_(BAH1), D768A; source: E. coli BL21(DE3) RIL, purified as the wild-type protein; not shown: His6-SUMO, N-terminal, cleaved

[2] = molecular target: T2, human DNMT1 BAH1 domain (residues 728-900), E821A (human, UniProt P26358 728-900, E821A); test: as above; details: both partners purified
T2 construct: numbering on isoform 1 of 1616 amino acids; also called hDNMT1_(BAH1), E821A; source: E. coli BL21(DE3) RIL, purified as the wild-type protein; not shown: His6-SUMO, N-terminal, cleaved

[3] = molecular target: T3, human DNMT1 BAH1 domain (residues 728-900), E819A (human, UniProt P26358 728-900, E819A); test: as above; details: both partners purified
T3 construct: numbering on isoform 1 of 1616 amino acids; also called hDNMT1_(BAH1), E819A; source: E. coli BL21(DE3) RIL, purified as the wild-type protein; not shown: His6-SUMO, N-terminal, cleaved

[4] = molecular target: T4, human ORC1 BAH domain (residues 1-185) (human, UniProt Q13415 1-185); test: ITC; 0.45 mM H4K20me2 peptide titrated over 64 µM ORC1 BAH domain; 20 mM Tris-HCl pH 7.5, 100 mM NaCl, 1 mM DTT; 5 °C; single-site binding mode; details: both partners purified
T4 construct: human origin recognition complex subunit 1 (ORC1), BAH domain, residues 1-185
T4 sequence (looked up): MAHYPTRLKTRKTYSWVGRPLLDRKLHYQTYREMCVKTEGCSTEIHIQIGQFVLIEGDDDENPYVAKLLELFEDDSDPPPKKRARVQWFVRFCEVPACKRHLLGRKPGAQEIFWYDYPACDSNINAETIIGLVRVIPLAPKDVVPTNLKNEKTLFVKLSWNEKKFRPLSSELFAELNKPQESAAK

[5] = molecular target: T5, MBP-tagged human DNMT1 residues 351-1600, M718A/H719A/K723A/K724A/K725A/Q726A (Mut^linker) (human, UniProt P26358 351-1600, M718A | H719A | K723A | K724A | K725A | Q726A); test: ITC
T5 construct: numbering on isoform 1 of 1616 amino acids; also called MBP-Mut^linker; source: E. coli BL21(DE3) RIL, purified

[6] = molecular target: T5, MBP-tagged human DNMT1 residues …; test: ITC; remark: listed apart in the source
[7] = molecular target: T6, hDNMT1 BAH1 domain from the His6-MBP vector (human, UniProt P26358 728-900); test: ITC; hDNMT1 BAH1 (WT, W796A or Mut^YW) with the autoinhibitory linker peptide hDNMT1(714-727); 5 °C; single-site fit; details: both partners purified
T6 construct: numbering on isoform 1 of DNMT1 with 1616 amino acids; also called WT; source: E. coli BL21(DE3) RIL, purified (Ni, ion exchange, TEV cleavage, Ni, SEC); not shown: His6-MBP, N-terminal, cleaved

[8] = molecular target: T7, bovine DNMT1 BAH1 domain (residues 725–897, residues 838–858 replaced by GAGSA) (bovine, UniProt Q24K09 725-837; Q24K09 859-897); test: crystal structure; bDNMT1 BAH1 mixed with peptide 1:3; hanging drop, 13% PEG1500, 20 mM DTT, 200 mM L-proline, 4 °C; HEPES pH 7.5 (K20me3) or MES pH 6.5 (K20me2); details: both partners purified
T7 construct: bovine DNMT1 BAH1 domain, residues 725-837; linker that replaces residues 838-858 to facilitate crystallization; bovine DNMT1 BAH1 domain, residues 859-897; the last two beta-strands were domain-swapped during crystallization; also called bDNMT1_(BAH1); source: E. coli BL21(DE3) RIL, purified (Ni, ULP1 cleavage, Q XL, Ni, SEC); not shown: His6-SUMO, N-terminal, cleaved
T7 chain: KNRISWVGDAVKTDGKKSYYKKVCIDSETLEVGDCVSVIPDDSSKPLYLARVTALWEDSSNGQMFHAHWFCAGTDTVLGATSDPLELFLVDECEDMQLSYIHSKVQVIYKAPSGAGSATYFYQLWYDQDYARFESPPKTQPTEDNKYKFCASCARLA

[9] = molecular target: T8, human DNMT1 BAH1 domain, wild type, His6-MBP construct used for the autoinhibitory linker binding (human, UniProt P26358 728-900); test: ITC; hDNMT1 BAH1 domain (WT, W796A or Mut^YW) with the autoinhibitory linker peptide hDNMT1(714-727); 5 °C; single-site binding mode; details: both partners purified
T8 construct: numbering on isoform 1 of 1616 amino acids; also called hDNMT1_(BAH1), WT; source: E. coli BL21(DE3) RIL, purified (Ni, ion exchange, TEV cleavage, Ni, SEC)
T8 sequence (P26358 728-900): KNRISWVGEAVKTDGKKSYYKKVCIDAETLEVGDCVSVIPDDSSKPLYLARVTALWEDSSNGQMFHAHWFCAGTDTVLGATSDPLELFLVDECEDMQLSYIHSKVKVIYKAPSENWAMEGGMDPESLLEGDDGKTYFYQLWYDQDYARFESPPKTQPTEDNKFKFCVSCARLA

T2 sequence (P26358 728-900 E821A): as the sequence (P26358 728-900) above, with E94A counted along it
T3 sequence (P26358 728-900 E819A): as the sequence (P26358 728-900) above, with E92A counted along it
T1 sequence (P26358 728-900 D768A): as the sequence (P26358 728-900) above, with D41A counted along it
T5 sequence (P26358 351-1600 M718A/H719A/K723A/K724A/K725A/Q726A): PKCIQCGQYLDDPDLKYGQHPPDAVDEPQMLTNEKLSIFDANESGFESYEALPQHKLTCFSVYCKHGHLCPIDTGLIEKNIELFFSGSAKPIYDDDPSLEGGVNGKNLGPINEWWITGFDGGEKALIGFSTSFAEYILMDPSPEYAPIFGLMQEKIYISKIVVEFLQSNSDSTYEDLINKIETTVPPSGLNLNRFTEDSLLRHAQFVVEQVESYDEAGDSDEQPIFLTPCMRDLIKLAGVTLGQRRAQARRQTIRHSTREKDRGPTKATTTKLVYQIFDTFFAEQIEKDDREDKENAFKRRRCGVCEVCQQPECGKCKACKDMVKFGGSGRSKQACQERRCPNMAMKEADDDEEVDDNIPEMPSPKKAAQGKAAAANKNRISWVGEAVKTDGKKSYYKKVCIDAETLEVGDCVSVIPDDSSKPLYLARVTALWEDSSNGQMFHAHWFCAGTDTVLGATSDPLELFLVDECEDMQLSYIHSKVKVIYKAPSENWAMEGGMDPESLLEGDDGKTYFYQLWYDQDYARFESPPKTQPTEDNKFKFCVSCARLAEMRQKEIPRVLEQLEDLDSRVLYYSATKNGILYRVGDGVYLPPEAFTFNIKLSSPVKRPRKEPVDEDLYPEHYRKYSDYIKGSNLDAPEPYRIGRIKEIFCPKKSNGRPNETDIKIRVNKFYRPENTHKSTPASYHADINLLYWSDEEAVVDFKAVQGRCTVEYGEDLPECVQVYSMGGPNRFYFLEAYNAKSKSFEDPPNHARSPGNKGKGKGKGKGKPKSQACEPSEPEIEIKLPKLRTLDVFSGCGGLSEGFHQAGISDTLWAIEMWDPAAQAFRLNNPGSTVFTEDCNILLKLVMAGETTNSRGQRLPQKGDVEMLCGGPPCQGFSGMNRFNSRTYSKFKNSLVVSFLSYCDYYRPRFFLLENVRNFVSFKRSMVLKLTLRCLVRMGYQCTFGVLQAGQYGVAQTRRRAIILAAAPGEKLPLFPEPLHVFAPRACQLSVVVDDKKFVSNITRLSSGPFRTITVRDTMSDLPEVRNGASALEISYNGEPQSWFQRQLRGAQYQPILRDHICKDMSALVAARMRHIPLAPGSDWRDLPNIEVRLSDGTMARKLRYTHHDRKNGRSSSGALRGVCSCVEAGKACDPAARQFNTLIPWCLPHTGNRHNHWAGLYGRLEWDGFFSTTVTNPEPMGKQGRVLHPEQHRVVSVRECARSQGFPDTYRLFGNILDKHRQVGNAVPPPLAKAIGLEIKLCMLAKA
T6 sequence (P26358 728-900): as the sequence (P26358 728-900) above

B1: H4(14-25)K20me2 peptide (peptide)
peptide: GAKRHRK(dimethyl)VLRDNY
notes: histone H4, residues 14-25; additional C-terminal tyrosine for spectroscopic quantification; source: synthetic peptide (LifeTein)
- Kd [1]: 9.3 µM
- stoichiometry N [1]: 0.92
- Kd [2]: 35.4 µM
- stoichiometry N [2]: 0.83
- Kd [3]: 12.3 µM
- stoichiometry N [3]: 0.87
- Kd [4]: 8.7 µM
- stoichiometry N [4]: 0.75

B2: H4(14-25)K20me3 peptide (peptide)
peptide: GAKRHRKVLRDNY
modifications: trimethyl-lysine at K20
notes: histone H4, residues 14-25; additional C-terminal tyrosine for spectroscopic quantification; also called H4K20me3 peptide; source: synthetic peptide (LifeTein)
- Kd [5]: 131 µM
- Kd [6]: 122 µM
- stoichiometry N [6]: 1.45
- Kd [1]: 11.5 µM
- stoichiometry N [1]: 0.82
- Kd [2]: 91.7 µM
- stoichiometry N [2]: 0.88
- Kd [3]: 9.4 µM
- stoichiometry N [3]: 0.73

B3: autoinhibitory linker peptide hDNMT1(714–727) (peptide)
peptide: SPKKMHQGKKKKQNY
notes: numbering on isoform 1 of DNMT1 with 1616 amino acids; additional C-terminal tyrosine for spectroscopic quantification; source: synthetic peptide (LifeTein)
- Kd [7]: ~70 µM

Second part, the binder after the results:

- binding result [8]: binds
B4: H4(14–25)K20me3 peptide (peptide)
peptide: GAKRHRK(trimethyl)VLRDNY
notes: as for B2

- stoichiometry N [9]: 1
B5: hDNMT1(714-727) autoinhibitory linker peptide (peptide)
peptide: SPKKMHQGKKKKQNY
notes: numbering on isoform 1 of 1616 amino acids; additional C-terminal tyrosine for spectroscopic quantification; source: synthetic peptide (LifeTein)

- binding result [8]: binds
B6: H4(14–25)K20me2 peptide (peptide)
peptide: GAKRHRK(dimethyl)VLRDNY
notes: histone H4, residues 14-25; additional C-terminal tyrosine for spectroscopic quantification; also called H4K20me2 peptide; source: synthetic peptide (LifeTein)
